We go through 6 molecules from publication PMC9411207, “Designed peptides as nanomolar cross-amyloid inhibitors acting via supramolecular nanofiber co-assembly” (Nature Communications, 2022).

Square brackets hold non-standard residues; d marks the D form. Ends that are not written are not given here. NMeF = CN[C@@H](Cc1ccccc1)C(=O)O; NMeL = CN[C@@H](CC(C)C)C(=O)O; NMeV = CN[C@H](C(=O)O)C(C)C; Nle = CCCC[C@H](N)C(=O)O

T2 sequence (P05067 672-713): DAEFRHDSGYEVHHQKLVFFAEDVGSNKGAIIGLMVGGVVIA

The target in one series is T1, N-terminal fluorescein-labeled IAPP (human, UniProt P10997 34-70, fluorescein on the N-terminus; subjected to air-oxidation).
T1 construct: also called Fluos-IAPP; source: synthetic peptide (Fmoc-SPPS, air-oxidation, RP-HPLC purified)
T1 chain (looked up): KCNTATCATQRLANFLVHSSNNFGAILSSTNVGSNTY
Description: other fluorescence titration; N-terminal fluorescently-labeled peptide (5 nM) titrated with unlabeled peptide; 10 mM sodium phosphate buffer, pH 7.4 (1% HFIP); measured within 2–5 min after preparation; apparent KDs from 1/1 binding models. Particulars: both partners purified.
As for QKL[NMeV]F[NMeF]AEDFFFNKGAIIGL[Nle]VGGVV [F3-VF], the Kd was found to be 15 nM.

For QK[NMeL]V[NMeF]FAEDLLLNKGAIIGL[Nle]VGGVV [L3-LF], the Kd worked out at 143 nM.

For the molecule QK[NMeL]V[NMeF]FAED[Nle][Nle][Nle]NKGAIIGL[Nle]VGGVV [Nle3-LF], the Kd was 55.4 nM.

Take QK[NMeL]V[NMeF]FAEDFFFNKGAIIGL[Nle]VGGVV [F3-LF]: the Kd amounted to 37.6 nM.

With QKL[NMeV]F[NMeF]AED[Nle][Nle][Nle]NKGAIIGL[Nle]VGGVV [Nle3-VF], the Kd was found to be 69.5 nM.

On to QKL[NMeV]F[NMeF]AEDLLLNKGAIIGL[Nle]VGGVV [L3-VF], for which the Kd came to 77.3 nM.

Another series has as its target T2, Fluorescein-isothiocyanate-β-Ala-labeled Aβ42 (UniProt P05067 672-713, fluorescein-isothiocyanate-β-Ala on the N-terminus).
T2 construct: amyloid-β peptide Aβ42, the 42-residue cut product of the amyloid precursor protein; also called FITC-Aβ42; N-terminal FITC-labeled Aβ42; source: bought: Bachem
Described as above. The conditions noted are these: both partners purified.
On to QKL[NMeV]F[NMeF]AEDFFFNKGAIIGL[Nle]VGGVV [F3-VF], for which the Kd is 161 nM.

Take QK[NMeL]V[NMeF]FAEDLLLNKGAIIGL[Nle]VGGVV [L3-LF]: the Kd was found to be 2.6 nM.

Turning to QK[NMeL]V[NMeF]FAED[Nle][Nle][Nle]NKGAIIGL[Nle]VGGVV [Nle3-LF], the Kd amounted to 11.1 nM.

Regarding QK[NMeL]V[NMeF]FAEDFFFNKGAIIGL[Nle]VGGVV [F3-LF], the Kd was found to be 431 nM.

QKL[NMeV]F[NMeF]AED[Nle][Nle][Nle]NKGAIIGL[Nle]VGGVV [Nle3-VF]: the Kd was determined as 14.5 nM.

Turning to QKL[NMeV]F[NMeF]AEDLLLNKGAIIGL[Nle]VGGVV [L3-VF], the Kd was 38 nM.

Another series concerns the molecule itself. Description: SEC; Superdex 75 10/300 GL, 50 mM sodium phosphate pH 7.4, 100 mM NaCl; IAPP (16.5 µM) alone or with Nle3-VF (1/2) incubated in ThT buffer, 0 h and 96 h.
Conditions: not given
For the molecule QKL[NMeV]F[NMeF]AED[Nle][Nle][Nle]NKGAIIGL[Nle]VGGVV [Nle3-VF], the “stoichiometry N” value came to 2.
